This passage reports Kd results from patent US20220088279A1 (GAMBRO LUNDIA, published 2022).

As a reminder, the Kd is a measure of binding affinity in units of concentration. Low values mean higher affinity, high ones lower affinity.

The experiment addresses T1, CD177 (UniProt Q8N6Q3 22-408, limits assumed).
T1 construct: Immobilized on a GLH sensor chip by amine chemistry for SPR; also called neutrophil receptor CD177
T1 sequence (looked up): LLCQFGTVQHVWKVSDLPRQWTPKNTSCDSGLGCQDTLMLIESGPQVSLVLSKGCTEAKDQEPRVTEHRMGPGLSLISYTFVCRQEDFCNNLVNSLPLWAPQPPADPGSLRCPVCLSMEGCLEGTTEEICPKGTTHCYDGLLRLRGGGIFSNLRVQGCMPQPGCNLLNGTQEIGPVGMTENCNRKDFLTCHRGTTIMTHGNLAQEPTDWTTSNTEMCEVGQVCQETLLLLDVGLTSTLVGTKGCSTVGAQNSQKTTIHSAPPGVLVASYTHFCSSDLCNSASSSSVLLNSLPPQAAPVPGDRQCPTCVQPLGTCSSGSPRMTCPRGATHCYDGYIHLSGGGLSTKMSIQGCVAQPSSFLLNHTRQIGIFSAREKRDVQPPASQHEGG
In words: SPR (ProteOn XPR36), CD177 immobilized on GLH chip by amine chemistry, PR3 variant in a concentration series. The method, then: FIG. 2: Comparison of wtPR3 and monomeric PR3 properties by SPR and ELISA. […] The antibodies each recognize distinct, non-overlapping epitopes on PR3. wtPR3 (left bar) and the monomeric Trp222Ala PR3 variant (right bar) are equally well recognized by the antibodies.
Experiments were performed on a ProteOn XPR36 instrument (BioRad) with proteins immobilized to GLH sensor chips (BioRad) using standard amine chemistry. The binding interaction of a concentration series of soluble monomeric Trp222Ala PR3 variant with immobilized CD177 was assessed (FIG. 2A).

B1: monomeric Trp222Ala PR3 variant (enzyme)
chain: IVGGHEAQPHSRPYMASLQMRGNPGSHFCGGTLIHPSFVLTAAHCLRDIPQRLVNVVLGAHNVRTQEPTQQHFSVAQVFLNNYDAENKLNDVLLIQLSSPANLSASVATVQLPQQDQPVPHGTQCLAMGWGRVGAHDPPAQVLQELNVTVVTFFCRPHNICTFVPRRKAGICFGDSGGPLICDGIIQGIDSFVIAGCATRLFPDFFTRVALYVDWIRSTLRRVEAKGRP
notes: Made as a C-terminal fusion with human Ig1 Fc and secreted through an N-terminal Ig1 signal peptide; The propeptides aa 26-27 and aa 249-256 may also be absent, and residues left by the TEV site may remain at the C-terminus; also called monomeric PR3
The molecule B1 displayed a Kd of 57 nM.
